In the experiment the target is EBOV sGP (secreted form of GP) (Zaire ebolavirus, Mayinga-76 …, UniProt P60170). In words: ELISA. The note with it: both partners purified. In general terms: In an ELISA, binding on a coated surface is turned into a signal by an enzyme label.
EBOV sGP (secreted form of GP), sequence (P60170 33-305): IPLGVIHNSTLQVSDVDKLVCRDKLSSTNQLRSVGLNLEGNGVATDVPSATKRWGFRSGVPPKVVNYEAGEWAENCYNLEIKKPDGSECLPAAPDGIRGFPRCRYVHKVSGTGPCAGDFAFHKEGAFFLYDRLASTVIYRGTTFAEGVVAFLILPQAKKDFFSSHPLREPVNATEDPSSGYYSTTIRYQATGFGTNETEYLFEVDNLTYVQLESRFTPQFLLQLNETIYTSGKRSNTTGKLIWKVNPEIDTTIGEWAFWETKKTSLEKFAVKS

B1: Nanosota-EB1-His (VHH)
VHH: QVQLQESGGGQVQAGGSLRLSCAASGSTSVIYAMGWYRQAPGKQRELVAAITRGVGSTNYADSVKGRFTISRDNAKNTMYLQMNSLKPEDTAVYYCNARLLVAPPPYEYDYWGQGTQVTVSS
As for B1, the binding result was “binds”.

B2: Nanosota-EB2-His (VHH)
VHH: QVQLQESGGGVVQAGGSLRLSCSASGRTFSNYAMAWFRQAPGKDREFAAGINYNGERTAYADSVKGRFTISRDDAKNTVYLQMNSLKPEDTAVYSCAARPWSIANLAYTYDSWGQGTQVTVSS
Consider B2, for which the binding result is given as “no binding”.

For the origin of these results see paper PMC11723632 (PLOS Pathogens, 2024).
